Values of other authors as cited in article PMC7226360.

Molecular target: NEDD8 (Homo sapiens) (UniProt Q15843)
Sequence (Q15843 1-76): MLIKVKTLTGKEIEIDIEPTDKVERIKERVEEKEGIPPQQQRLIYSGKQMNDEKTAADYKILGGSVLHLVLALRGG

KHNYN 627-678, sequence (O15037 627-678): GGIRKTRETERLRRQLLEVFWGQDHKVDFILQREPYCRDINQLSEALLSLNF

In the case of KHNYN 627-678 (from UniProt O15037), the Kd is given as 24 µM.
